Test results: the supplement of paper PMC11246515
± gives the standard deviation of the averaged measurements.

Assay: total protein half-life in vivo (active degradation + dilution); higher = more stable protein
[1] = E. coli NCM3722 delta-clpP delta-lon delta-hslV, growth: N-lim chemostat, doubling time 6 h
[2] = E. coli NCM3722 delta-clpP, growth: N-lim chemostat, doubling time 6 h
[3] = E. coli NCM3722 delta-hslV, growth: N-lim chemostat, doubling time 6 h
[4] = E. coli NCM3722 delta-lon, growth: N-lim chemostat, doubling time 6 h
[5] = E. coli NCM3722 delta-smpB, growth: N-lim chemostat, doubling time 6 h
[6] = wild type E. coli NCM3722, growth: C-lim chemostat, doubling time 3 h
[7] = wild type E. coli NCM3722, growth: C-lim chemostat, doubling time 6 h
[8] = wild type E. coli NCM3722, growth: C-lim chemostat, doubling time 12 h
[9] = wild type E. coli NCM3722, growth: N-lim chemostat, doubling time 6 h
[10] = wild type E. coli NCM3722, growth: N-lim chemostat, doubling time 12 h
[11] = wild type E. coli NCM3722, growth: P-lim chemostat, doubling time 6 h
[12] = wild type E. coli NCM3722, growth: P-lim chemostat, doubling time 12 h

MTEQQKLTFTALQQRLDSLMLRDRLRFSRRLHGVKKVKNPDAQQAIFQEMAKEIDQAAGKVLLREAARPEITYPDNLPVSQKKQDILEAIRDHQVVIVAGETGSGKTTQLPKICMELGRGIKGLIGHTQPRRLAARTVANRIAEELKTEPGGCIGYKVRFSDHVSDNTMVKLMTDGILLAEIQQDRLLMQYDTIIIDEAHERSLNIDFLLGYLKELLPRRPDLKIIITSATIDPERFSRHFNNAPIIEVSGRTYPVEVRYRPIVEEADDTERDQLQAIFDAVDELSQESHGDILIFMSGEREIRDTADALNKLNLRHTEILPLYARLSNSEQNRVFQSHSGRRIVLATNVAETSLTVPGIKYVIDPGTARISRYSYRTKVQRLPIEPISQASANQRKGRCGRVSEGICIRLYSEDDFLSRPEFTDPEILRTNLASVILQMTALGLGDIAAFPFVEAPDKRNIQDGVRLLEELGAITTDEQASAYKLTPLGRQLSQLPVDPRLARMVLEAQKHGCVREAMIITSALSIQDPRERPMDKQQASDEKHRRFHDKESDFLAFVNLWNYLGEQQKALSSNAFRRLCRTDYLNYLRVREWQDIYTQLRQVVKELGIPVNSEPAEYREIHIALLTGLLSHIGMKDADKQEYTGARNARFSIFPGSGLFKKPPKWVMVAELVETSRLWGRIAARIDPEWVEPVAQHLIKRTYSEPHWERAQGAVMATEKVTVYGLPIVAARKVNYSQIDPALCRELFIRHALVEGDWQTRHAFFRENLKLRAEVEELEHKSRRRDILVDDETLFEFYDQRISHDVISARHFDSWWKKVSRETPDLLNFEKSMLIKEGAEKISKLDYPNFWHQGNLKLRLSYQFEPGADADGVTVHIPLPLLNQVEESGFEWQIPGLRRELVIALIKSLPKPVRRNFVPAPNYAEAFLGRVKPLELPLLDSLERELRRMTGVTVDREDWHWDQVPDHLKITFRVVDDKNKKLKEGRSLQDLKDALKGKVQETLSAVADDGIEQSGLHIWSFGQLPESYEQKRGNYKVKAWPALVDERDSVAIKLFDNPLEQKQAMWNGLRRLLLLNIPSPIKYLHEKLPNKAKLGLYFNPYGKVLELIDDCISCGVDKLIDANGGPVWTEEGFAALHEKVRAELNDTVVDIAKQVEQILTAVFNINKRLKGRVDMTMALGLSDIKAQMGGLVYRGFVTGNGFKRLGDTLRYLQAIEKRLEKLAVDPHRDRAQMLKVENVQQAWQQWINKLPPARREDEDVKEIRWMIEELRVSYFAQQLGTPYPISDKRILQAMEQISG
total protein half-life in vivo [1]: 6.34 ± 0.51 h | total protein half-life in vivo [2]: 6.5 ± 1.2 h | total protein half-life in vivo [3]: 5.99 ± 0.13 h | total protein half-life in vivo [4]: 5.89 ± 0.89 h | total protein half-life in vivo [5]: 5.46 ± 0.8 h | total protein half-life in vivo [6]: 3.53 ± 0.13 h | total protein half-life in vivo [7]: 6.34 ± 0.23 h | total protein half-life in vivo [8]: 12.8 ± 1.3 h | total protein half-life in vivo [9]: 5.66 ± 0.1 h | total protein half-life in vivo [10]: 11.2 ± 0.78 h | total protein half-life in vivo [11]: 5.71 ± 0.12 h | total protein half-life in vivo [12]: 11.3 ± 0.18 h

MRLSLPRLKMPRLPGFSILVWISTALKGWVMGSREKDTDSLIMYDRTLLWLTFGLAAIGFIMVTSASMPIGQRLTNDPFFFAKRDGVYLILAFILAIITLRLPMEFWQRYSATMLLGSIILLMIVLVVGSSVKGASRWIDLGLLRIQPAELTKLSLFCYIANYLVRKGDEVRNNLRGFLKPMGVILVLAVLLLAQPDLGTVVVLFVTTLAMLFLAGAKLWQFIAIIGMGISAVVLLILAEPYRIRRVTAFWNPWEDPFGSGYQLTQSLMAFGRGELWGQGLGNSVQKLEYLPEAHTDFIFAIIGEELGYVGVVLALLMVFFVAFRAMSIGRKALEIDHRFSGFLACSIGIWFSFQALVNVGAAAGMLPTKGLTLPLISYGGSSLLIMSTAIMMLLRIDYETRLEKAQAFVRGSR [P0ABG4]
total protein half-life in vivo [1]: 4.49 h | total protein half-life in vivo [2]: 2.97 ± 0.5 h | total protein half-life in vivo [3]: 3.01 h | total protein half-life in vivo [4]: 3.64 h | total protein half-life in vivo [5]: 2.76 ± 0.73 h | total protein half-life in vivo [6]: 2.41 ± 0.21 h | total protein half-life in vivo [8]: 3.2 h | total protein half-life in vivo [11]: 2.93 h | total protein half-life in vivo [12]: 5 h

MTKLKLLALGVLIATSAGVAHAEGKFSLGAGVGVVEHPYKDYDTDVYPVPVINYEGDNFWFRGLGGGYYLWNDATDKLSITAYWSPLYFKAKDSGDHQMRHLDDRKSTMMAGLSYAHFTQYGYLRTTLAGDTLDNSNGIVWDMAWLYRYTNGGLTVTPGIGVQWNSENQNEYYYGVSRKESARSGLRGYNPNDSWSPYLELSASYNFLGDWSVYGTARYTRLSDEVTDSPMVDKSWTGLISTGITYKF [P0A908]
total protein half-life in vivo [1]: 6.14 ± 1.1 h | total protein half-life in vivo [2]: 7.17 ± 0.13 h | total protein half-life in vivo [3]: 6.01 ± 1.1 h | total protein half-life in vivo [4]: 6.05 ± 1 h | total protein half-life in vivo [5]: 5.96 ± 0.079 h | total protein half-life in vivo [6]: 2.55 ± 0.14 h | total protein half-life in vivo [7]: 5.81 ± 0.46 h | total protein half-life in vivo [8]: 13.6 ± 2.3 h | total protein half-life in vivo [9]: 6.35 ± 0.63 h | total protein half-life in vivo [10]: 14 ± 1.4 h | total protein half-life in vivo [11]: 5.7 ± 0.23 h
